According to PMC7212365:
pKd: −log10 of the molar value.

Experiments:
[1] = target: Dimeric HER2 binding IgA1 produced in HEK293F cells (human) (UniProt P01591); experiment: SPR; Biacore T200; IgA variants immobilized on a Protein L sensor chip; five increasing concentrations of FcαRI injected in single-cycle kinetic experiments; 1:1 binding model; three independent kinetic runs
[2] = target: Monomeric HER2 binding IgA2m(2) produced in N. benthamiana ΔXT/FT (human); experiment: as above
[3] = target: Dimeric HER2 binding IgA2m(2) produced in N. benthamiana ΔXT/FT (human) (UniProt P01591); experiment: as above
[4] = target: Monomeric HER2 binding IgA1 produced in HEK293F cells (human); experiment: as above
[5] = target: Dimeric HER2 binding IgA1 produced in N. benthamiana ΔXT/FT (human) (UniProt P01591); experiment: as above
[6] = target: Monomeric HER2 binding IgA1 produced in N. benthamiana ΔXT/FT (human); experiment: as above
[7] = target: Dimeric HER2 binding IgA2m(2) produced in HEK293F cells (human) (UniProt P01591); experiment: as above
[8] = target: Monomeric HER2 binding IgA2m(2) produced in HEK293F cells (human); experiment: as above
[9] = target: HER2 binding monomeric IgA1 produced in N. benthamiana ΔXT/FT plants (human); experiment: SPR; Biacore T200; IgA variants immobilised on a Protein L sensor chip with the Fc-domain pointing toward the solution; five increasing concentrations of FcαRI injected in single-cycle kinetic experiments; 1:1 binding model; three independent kinetic runs
[10] = target: HER2 binding monomeric IgA2m(2) produced in HEK293F cells (human); experiment: as above
[11] = target: HER2 binding dimeric IgA1 produced in N. benthamiana ΔXT/FT plants (human) (UniProt P01591); experiment: as above
[12] = target: HER2 binding monomeric IgA2m(2) produced in N. benthamiana ΔXT/FT plants (human); experiment: as above
[13] = target: HER2 binding dimeric IgA2m(2) produced in HEK293F cells (human) (UniProt P01591); experiment: as above
[14] = target: HER2 binding dimeric IgA2m(2) produced in N. benthamiana ΔXT/FT plants (human) (UniProt P01591); experiment: as above
[15] = target: HER2 binding monomeric IgA1 produced in HEK293F cells (human); experiment: as above
[16] = target: HER2 binding dimeric IgA1 produced in HEK293F cells (human) (UniProt P01591); experiment: as above

pKd [1]: 6.84 | koff [1]: 0.055 s⁻¹ | kon [1]: 360000 M⁻¹ s⁻¹ | pKd [2]: 6.80 | koff [2]: 0.055 s⁻¹ | kon [2]: 340000 M⁻¹ s⁻¹ | pKd [3]: 6.65 | koff [3]: 0.049 s⁻¹ | kon [3]: 270000 M⁻¹ s⁻¹ | pKd [4]: 6.96 | koff [4]: 0.05 s⁻¹ | kon [4]: 440000 M⁻¹ s⁻¹ | pKd [5]: 6.82 | koff [5]: 0.057 s⁻¹ | kon [5]: 370000 M⁻¹ s⁻¹ | pKd [6]: 6.99 | koff [6]: 0.061 s⁻¹ | kon [6]: 580000 M⁻¹ s⁻¹ | pKd [7]: 6.74 | koff [7]: 0.049 s⁻¹ | kon [7]: 260000 M⁻¹ s⁻¹ | pKd [8]: 6.81 | koff [8]: 0.05 s⁻¹ | kon [8]: 310000 M⁻¹ s⁻¹ | pKd [9]: 6.96 | stoichiometry N [9]: 1 | pKd [10]: 6.77 | stoichiometry N [10]: 1 | stoichiometry N [11]: 1 | pKd [12]: 6.77 | stoichiometry N [12]: 1 | stoichiometry N [13]: 1 | stoichiometry N [14]: 1 | pKd [15]: 6.96 | stoichiometry N [15]: 1 | stoichiometry N [16]: 1
Substance: Recombinant soluble FcαRI (from UniProt P24071 22-227) (receptor)
